Data: article PMC11969024, “Development of chemokine network inhibitors using combinatorial saturation mutagenesis” (Communications Biology, 2025)

B1: peptide HD2 (from tick evasin EVA4) / CXCL13 (biotinylated, synthetic) (parent)
chain 1: EEDDYTAYAPLTCYFT
chain 2: VLEVYYTSLRCRCVQESSVFIPRRFIDRIQILPRGNGCPRKEIIVWKKNKSIVCVDPQAEWIQRMMEVLRKRSSSTLPVPVFKRKIP
B2: peptide HD2 (from tick evasin EVA4) / CCL19 (biotinylated, synthetic) (parent)
chain 1: EEDDYTAYAPLTCYFT
chain 2: GTNDAEDCCLSVTQKPIPGYIVRNFHYLLIKDGCRVPAVVFTTLRGRQLCAPPDQPWVERIIQRLQRTSAKMKRRSS

Variants of: B1
Conditions: with CXCL13 (biotinylated, synthetic); scale: log2

Point of comparison: chain 1 EEDDYTAYAPLTKYFT [chain 1 C13K], enrichment -7.9. Against it:
- chain 1 EEDDYTAYKPLTCYFT [chain 1 A9K] — higher, -5.4
- chain 1 EEDDYTAYCPLTCYFT [chain 1 A9C] — lower, -8.86
- chain 1 EEDDYTAYDPLTCYFT [chain 1 A9D] — higher, -7
- chain 1 EEDDYTCYAPLTCYFT [chain 1 A7C] — lower, -8.62
- chain 1 EEDDYTAPAPLTCYFT [chain 1 Y8P] — higher, -6.64
- chain 1 EEDDYTACAPLTCYFT [chain 1 Y8C] — lower, -8.46
- chain 1 EEDDYTARAPLTCYFT [chain 1 Y8R] — higher, -6.96
- chain 1 EEDDYTAKAPLTCYFT [chain 1 Y8K] — higher, -4.84
- chain 1 EEDDYTAYAPLTHYFT [chain 1 C13H] — higher, -7.42
- chain 1 EEDDYTAYAPLTRYFT [chain 1 C13R] — lower, -9.32
- chain 1 EEDDYTAYAPLTMYFT [chain 1 C13M] — lower, -8.29
- chain 1 EEDDYTAYAPLTGYFT [chain 1 C13G] — lower, -9.21
- chain 1 EEDDYTAYAPLTFYFT [chain 1 C13F] — higher, -7.4
- chain 1 EEDDYTAYAPLTDYFT [chain 1 C13D] — lower, -7.93
- chain 1 EEDDYTAYAPLTWYFT [chain 1 C13W] — lower, -8.42
- chain 1 EEDDYTAYAPLTCGFT [chain 1 Y14G] — lower, -9.28
- chain 1 EEDDYTAYAPLTCKFT [chain 1 Y14K] — higher, -6.94
- chain 1 EEDDYTAYAPLTCNFT [chain 1 Y14N] — higher, -5.67
- chain 1 EEDDYTAYAPLTCIFT [chain 1 Y14I] — higher, -6.05
- chain 1 EEDDYTAYAPLTCEFT [chain 1 Y14E] — higher, -7.54
- chain 1 EEDDYTAYAPLTCAFT [chain 1 Y14A] — lower, -8.81
- chain 1 EEDDYTAYAPLTCLFT [chain 1 Y14L] — lower, -9.26
- chain 1 EEDDYTAYAPLTCDFT [chain 1 Y14D] — higher, -6.3
- chain 1 EEDKYTAYAPLTCYFT [chain 1 D4K] — higher, -5.65
- chain 1 EEDRYTAYAPLTCYFT [chain 1 D4R] — higher, -5.86
- chain 1 EEDTYTAYAPLTCYFT [chain 1 D4T] — higher, -6.65
- chain 1 EEDCYTAYAPLTCYFT [chain 1 D4C] — lower, -8.01
- chain 1 EEDDYTAYAPLTCYNT [chain 1 F15N] — higher, -5.51
- chain 1 EEDDYTAYAPLTCYHT [chain 1 F15H] — higher, -6.08
- chain 1 EEDDYTAYAPLTCYKT [chain 1 F15K] — higher, -5.78
- chain 1 EEDDYTAYAPLTCYDT [chain 1 F15D] — higher, -7.37
- chain 1 EEDDYTAYAPLKCYFT [chain 1 T12K] — higher, -6.36
- chain 1 EEDDYTAYAPLECYFT [chain 1 T12E] — higher, -6.73
- chain 1 EEDDYTAYAPLGCYFT [chain 1 T12G] — lower, -9.07
- chain 1 EEDDYTAYAILTCYFT [chain 1 P10I] — higher, -7.21
- chain 1 EEDDYTAYATLTCYFT [chain 1 P10T] — higher, -6.64
- chain 1 EEDDYTAYAYLTCYFT [chain 1 P10Y] — higher, -7.34
- chain 1 EEDDYTAYAQLTCYFT [chain 1 P10Q] — higher, -5.17
- chain 1 EEDDYTAYAFLTCYFT [chain 1 P10F] — lower, -8.19
- chain 1 EEDDYTAYAKLTCYFT [chain 1 P10K] — higher, -5.74
- chain 1 EEDDYTAYACLTCYFT [chain 1 P10C] — lower, -8.5
- chain 1 EEDDYTAYARLTCYFT [chain 1 P10R] — higher, -7.85
- chain 1 EEDDTTAYAPLTCYFT [chain 1 Y5T] — higher, -6.44
- chain 1 EEDDRTAYAPLTCYFT [chain 1 Y5R] — higher, -5.82
- chain 1 EEDDKTAYAPLTCYFT [chain 1 Y5K] — higher, -4.37
- chain 1 EEDDCTAYAPLTCYFT [chain 1 Y5C] — lower, -7.94
- chain 1 CEDDYTAYAPLTCYFT [chain 1 E1C] — lower, -8.53
- chain 1 EKDDYTAYAPLTCYFT [chain 1 E2K] — higher, -3.92
- chain 1 ECDDYTAYAPLTCYFT [chain 1 E2C] — lower, -8.79
- chain 1 ERDDYTAYAPLTCYFT [chain 1 E2R] — higher, -5.9
- chain 1 EEDDYTAYAPGTCYFT [chain 1 L11G] — lower, -9.02
- chain 1 EEDDYTAYAPDTCYFT [chain 1 L11D] — higher, -7.86
- chain 1 EEDDYTAYAPPTCYFT [chain 1 L11P] — higher, -6.87
- chain 1 EEDDYTAYAPETCYFT [chain 1 L11E] — higher, -6.94
- chain 1 EEDDYTAYAPQTCYFT [chain 1 L11Q] — higher, -5.03
- chain 1 EEDDYTAYAPKTCYFT [chain 1 L11K] — higher, -5.76
- chain 1 EECDYTAYAPLTCYFT [chain 1 D3C] — lower, -8.67
- chain 1 EEHDYTAYAPLTCYFT [chain 1 D3H] — higher, -5.74
- chain 1 EERDYTAYAPLTCYFT [chain 1 D3R] — higher, -6.23
- chain 1 EEKDYTAYAPLTCYFT [chain 1 D3K] — higher, -4.13

Variants of: B2
Conditions: with CCL19 (biotinylated, synthetic); scale: log2

Point of comparison: chain 1 EEDDYTAYARLTCYFT [chain 1 P10R], enrichment -8.05. Against it:
- chain 1 EEDDYTAYASLTCYFT [chain 1 P10S] — lower, -8.17
- chain 1 EEDDPTAYAPLTCYFT [chain 1 Y5P] — higher, -5.7
- chain 1 EEDDQTAYAPLTCYFT [chain 1 Y5Q] — higher, -4.33
- chain 1 EEDDGTAYAPLTCYFT [chain 1 Y5G] — higher, -6.08
- chain 1 EEDDKTAYAPLTCYFT [chain 1 Y5K] — higher, -4.57
- chain 1 EEDDETAYAPLTCYFT [chain 1 Y5E] — higher, -2.46
- chain 1 EEDDVTAYAPLTCYFT [chain 1 Y5V] — lower, -8.24
- chain 1 EEDDATAYAPLTCYFT [chain 1 Y5A] — higher, -6.04
- chain 1 EEDDRTAYAPLTCYFT [chain 1 Y5R] — higher, -6.02
- chain 1 EEDDYTAYAPLTCTFT [chain 1 Y14T] — higher, -7.91
- chain 1 EEDDYTAYAPLTCNFT [chain 1 Y14N] — higher, -5.87
- chain 1 EEDDYTAYAPLTCCFT [chain 1 Y14C] — higher, -7.29
- chain 1 EEDDYTAYAPLTCDFT [chain 1 Y14D] — higher, -6.5
- chain 1 EEDDYTAYAPLTCQFT [chain 1 Y14Q] — higher, -7.02
- chain 1 EEDDYTAYAPLTCSFT [chain 1 Y14S] — lower, -8.64
- chain 1 EEDDYTAYAPLTCEFT [chain 1 Y14E] — higher, -7.73
- chain 1 EEDDYTAYAPLTCYFP [chain 1 T16P] — higher, -6.44
- chain 1 EEDDYTAYAPLQCYFT [chain 1 T12Q] — higher, -6.6
- chain 1 EEDDYTAYAPLDCYFT [chain 1 T12D] — higher, -7.63
- chain 1 EEDDYTAYAPLGCYFT [chain 1 T12G] — lower, -9.27
- chain 1 EEDDYTAAAPLTCYFT [chain 1 Y8A] — higher, -7.75
- chain 1 EEDDYTANAPLTCYFT [chain 1 Y8N] — higher, -7.1
- chain 1 EEDDYTAIAPLTCYFT [chain 1 Y8I] — lower, -8.35
- chain 1 EEDDYTAKAPLTCYFT [chain 1 Y8K] — higher, -5.04
- chain 1 EEDDYTAQAPLTCYFT [chain 1 Y8Q] — higher, -5.33
- chain 1 EEDDYTAPAPLTCYFT [chain 1 Y8P] — higher, -6.84
- chain 1 EEDDYTATAPLTCYFT [chain 1 Y8T] — higher, -7.46
- chain 1 EEDDYTARAPLTCYFT [chain 1 Y8R] — higher, -7.16
- chain 1 EEDDYTADAPLTCYFT [chain 1 Y8D] — higher, -6.51
- chain 1 EEDDYTACAPLTCYFT [chain 1 Y8C] — lower, -8.65
- chain 1 EEDDYTAEAPLTCYFT [chain 1 Y8E] — higher, -5.16
- chain 1 EEDDYTAGAPLTCYFT [chain 1 Y8G] — higher, -7.68
